This note sets out measurements from PMC11791206 (Nature Communications, 2025).

The target of this test is full-length (MLD-containing) EBOV glycoprotein GP1,2, wild type (Ebola virus (EBOV), UniProt Q05320). In words: immunostaining of cells or tissue. The settings on record: one partner purified.
Sequence of full-length (MLD-containing) EBOV glycoprotein GP1,2, wild type (Q05320 33-676): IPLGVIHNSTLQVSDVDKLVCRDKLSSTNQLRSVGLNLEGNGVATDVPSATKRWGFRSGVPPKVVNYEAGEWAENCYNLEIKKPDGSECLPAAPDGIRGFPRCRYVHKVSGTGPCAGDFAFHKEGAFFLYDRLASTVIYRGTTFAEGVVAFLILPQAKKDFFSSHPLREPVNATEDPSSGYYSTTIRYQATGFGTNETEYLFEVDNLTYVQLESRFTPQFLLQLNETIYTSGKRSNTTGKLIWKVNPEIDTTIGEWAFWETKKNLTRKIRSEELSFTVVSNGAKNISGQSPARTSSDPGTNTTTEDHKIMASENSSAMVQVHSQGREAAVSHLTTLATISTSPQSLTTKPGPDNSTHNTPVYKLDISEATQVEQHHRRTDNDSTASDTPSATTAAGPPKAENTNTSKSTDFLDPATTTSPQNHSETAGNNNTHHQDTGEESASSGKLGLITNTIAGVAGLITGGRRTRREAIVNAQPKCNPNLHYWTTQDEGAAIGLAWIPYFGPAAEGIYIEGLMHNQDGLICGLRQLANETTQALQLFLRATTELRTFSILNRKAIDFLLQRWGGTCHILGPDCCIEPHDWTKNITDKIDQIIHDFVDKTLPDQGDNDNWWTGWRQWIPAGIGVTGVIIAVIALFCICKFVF

B1: mAb 9.6.3A6 (3A6 IgG) (antibody, V domains shown)
VH: EVQLLESGGGLVKPGGSLRLSCAASGFTFNEYMMNWVRQPPGKGLEWVSSISGTSTYINYADSVKGRFTISRDNAKNSLYLQMNSLRSDDTAMYYCARGSTGGYWGQGTLITVSS
VL: DIVMTQTPLSSAVTLGQPASISCRSSQRLVHSDGNTYLSWLHQRPGQPPRLLIYKVSLRFSGVPDRFSGSGAGTDFTLKISRVEAEDVGIYYCMQATQFPLTFGGGTKVEIK
notes: copies: 2 + 2
B1: the binding result is reported as “binds”.
